This assay addresses T1, Human ST2 (human, UniProt Q01638 19-328, limits assumed).
T1 construct: also called human ST2 protein; Interleukin 1 receptor-like 1
T1 sequence (looked up): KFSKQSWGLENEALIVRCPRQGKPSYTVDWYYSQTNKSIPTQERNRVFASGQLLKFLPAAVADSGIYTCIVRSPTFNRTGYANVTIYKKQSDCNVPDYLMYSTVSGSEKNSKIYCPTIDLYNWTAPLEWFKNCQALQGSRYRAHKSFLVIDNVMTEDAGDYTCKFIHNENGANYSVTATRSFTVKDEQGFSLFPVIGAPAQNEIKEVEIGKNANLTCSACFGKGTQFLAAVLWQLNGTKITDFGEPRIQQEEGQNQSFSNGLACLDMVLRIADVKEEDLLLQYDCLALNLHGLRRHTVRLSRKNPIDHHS
Put plainly: SPR (Carterra), antibody immobilized, ST2 analyte. As for the experimental part:
Binding of the reformatted human ST2 antibodies to the human and mouse ST2 proteins was evaluated by surface plasmon resonance (SPR), using a high throughput antibody screening and characterization platform from Carterra (Salt Lake City, Utah).

By Kd is commonly meant a measure of binding affinity in units of concentration. Low values mean higher affinity, high ones lower affinity. In general, koff refers to the first-order rate constant of dissociation. Lower therefore signals slow dissociation. What is called kon is a measure of how fast the partners come together. A low value points to slow association.

B1: Human ST2 IgG1 Antibody 85 (antibody, V domains shown)
VH: EVQLLESGGGLVQPGGSLRLSCAASGFSFSTYWMHWVRQAPGKGLEWVSGISGGGIYTYYADSVKGRFTISRDNSKNTLYLQMNSLRAEDTAVYYCASMTYGDYYGMDVWGQGTTVTVSS
VL: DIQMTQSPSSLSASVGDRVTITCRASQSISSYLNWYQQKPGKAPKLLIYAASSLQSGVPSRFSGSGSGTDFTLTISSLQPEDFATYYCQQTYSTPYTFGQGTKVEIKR
notes: IgG1; also called ST2 Antibody 85
For the molecule B1, the Kd worked out at 554 nM, the koff was found to be 0.068 s⁻¹ and the kon came to 120000 M⁻¹ s⁻¹.

B2: Human ST2 IgG1 Antibody 77 (antibody, V domains shown)
VH: QVQLVQSGAEVKKPGSSVKVSCKASGYTFSDHYIHWVRQAPGQGLEWMGGIIPILGTANYAQKFQGRVTITADESTSTAYMELSSLRSEDTAVYYCATDIAVAGTGFDYWGQGTLVTVSS
VL: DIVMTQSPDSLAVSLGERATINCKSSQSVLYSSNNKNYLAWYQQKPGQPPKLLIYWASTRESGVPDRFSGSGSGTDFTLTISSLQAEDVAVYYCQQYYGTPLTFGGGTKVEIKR
notes: IgG1; also called ST2 Antibody 77
B2 showed a Kd of 377 nM, a koff of 0.099 s⁻¹ and a kon of 260000 M⁻¹ s⁻¹.

B3: Human ST2 IgG1 Antibody 71 (antibody, V domains shown)
VH: QVQLVQSGAEVKKPGASVKVSCKASGGTFSNYGVSWVRQAPGQGLEWMGGINPSRGTTTYAQKFQGRVTMTRDTSTSTVYMELSSLRSEDTAVYYCAKGDIVVVPAAMFSLGPGYYYYMDVWGKGTTVTVSS
VL: DIQMTQSPSSLSASVGDRVTITCRASQSISSYLNWYQQKPGKAPKLLIYAASSLQSGVPSRFSGSGSGTDFTLTISSLQPEDFATYYCQQANSFPITFGQGTKLEIKR
notes: IgG1; also called ST2 Antibody 71
With B3, the affinity, expressed as Kd, was 912 nM; the koff was 0.12 s⁻¹; the kon turned out to be 140000 M⁻¹ s⁻¹.

B4: Human ST2 IgG1 Antibody 75 (antibody, V domains shown)
VH: EVQLLESGGGLVQHGGSLRLSCAASGFTFSSYWMSWVRQAPGKGLEWVSSISSSSSYIYYADSVKGRFTISRDNSKNTLYLQMNSLRAEDTAVYYCARDIAGYFDLWGRGTLVTVSS
VL: DIQMTQSPSSLSASVGDRVTITCQASQSISSYLNWYQQKPGKAPKLLIYAASSLQSGVPSRFSGSGSGTDFTLTISSLQPEDFATYYCQQGYLTPYTFGQGTKLEIKR
notes: IgG1; also called ST2 Antibody 75
B4 registered a Kd of 360 nM, a koff of 0.041 s⁻¹ and a kon of 120000 M⁻¹ s⁻¹.

B5: Human ST2 IgG1 Antibody 89 (antibody, V domains shown)
VH: EVQLLESGGGLVKPGGSLRLSCAASGFTFSSYWMSWVRQAPGKGLEWVSAISGTAINTYYADSVKGRFTISRDDSKNTLYLQMNSLKTEDTAVYYCARVRRDSSGGGAFDIWGQGTMVTVSS
VL: DIQMTQSPSSLSASVGDRVTITCRASQGISNNLNWYQQKPGKAPKLLIYAASSLQTGVPSRFSGSGSGTDFTLTISSLQPEDFATYYCQQSYSTPPTFGQGTKVEIKR
notes: IgG1; also called ST2 Antibody 89
For B5, the affinity, expressed as Kd, was 102 nM; the koff stood at 0.024 s⁻¹; the kon amounted to 240000 M⁻¹ s⁻¹.

B6: Human ST2 IgG1 Antibody 83 (antibody, V domains shown)
VH: EVQLLESGGGLVKPGGSLRLSCAASGFTFSSYWMSWVRQAPGKGLEWVSAIGTAGDTYYPGSVKGRFTISRDDSKNTLYLQMNSLKTEDTAVYYCAILRRDKVWPFDYWGQGTLVTVSS
VL: DIQMTQSPSSLSASVGDRVTITCRASQSISSHLHWYQQKPGKAPKLLIYAASSLQSGVPSRFSGSGSGTDFTLTISSLQPEDFATYYCQQSYSSPVTFGGGTKVEIKR
notes: IgG1; also called ST2 Antibody 83
B6 had a Kd of 70 nM, a koff of 0.018 s⁻¹ and a kon of 260000 M⁻¹ s⁻¹.

B7: Human ST2 IgG1 Antibody 88 (antibody, V domains shown)
VH: EVQLLESGGGLVQPGGSLRLSCAASGFTFSSYWMSWVRQAPGKGLEWVSSISSSGGYLYYADSVKGRFTISRDNSKNTLYLQMNSLRAEDTAVYYCARDWGLTPDYWGQGTLVTVSS
VL: not shown
notes: IgG1; also called ST2 Antibody 88
As for B7, the Kd stood at 543 nM, the koff was 0.13 s⁻¹ and the kon is 240000 M⁻¹ s⁻¹.

B8: Human ST2 IgG1 Antibody 76 (antibody, V domains shown)
VH: QVQLVQSGAEVKKPGSSVKVSCKASGYTFTDYYMHWVRQAPGQGLEWMGVIIPVLGAAKYAQKFQGRVTITADESTSTAYMELSSLRSEDTAVYYCAKGWGAFDIWGQGTMVTVSS
VL: EIVMTQSPATLSVSPGERATLSCRASQSVSSYLAWYQQKPGQAPRLLIYGASTRASGIPARFSGSGSGTEFTLTISSLQSEDFAVYYCQQYYSYPWTFGQGTKVEIKR
notes: IgG1; also called ST2 Antibody 76
For B8, the affinity, expressed as Kd, was 133 nM; the koff is 0.11 s⁻¹; the kon stood at 820000 M⁻¹ s⁻¹.

B9: Human ST2 IgG1 Antibody 86 (antibody, V domains shown)
VH: QVQLVQSGAEVKKPGSSVKVSCKASGGTFSNYAISWVRQAPGQGLEWMGGIIPIFGTANYAQKFQGRVTITADESTSTAYMELSSLRSEDTAVYYCAKDLGGWFNLFDPWGQGTLVTVSS
VL: EIVMTQSPATLSVSPGERATLSCRASQGVSSYLAWYQQKPGQAPRLLIYGASTRATGIPARFSGSGSGTEFTLTISSLQSEDFAVYYCQQYRSFPLTFGGGTKVEIKR
notes: IgG1; also called ST2 Antibody 86
Molecule B9 showed a Kd of 41 nM, a koff of 0.029 s⁻¹ and a kon of 720000 M⁻¹ s⁻¹.

B10: Human ST2 IgG1 Antibody 72 (antibody, V domains shown)
VH: EVQLLESGGGLVQPGGSLRLSCAASGFTFSSYGMSWVRQAPGKGLEWLAVIWSDGGHKYYADSVKGRFTISRDNSKNTLYLQMNSLRAEDTAVYYCAREVRGWFDPWGQGTLVTVSS
VL: DIQMTQSPSSLSASVGDRVTITCRASENIGTWLAWYQQKPGKAPKLLIYKASSLDSGVPSRFSGSGSGTDFTLTISSLQPEDFATYYCQQSYSTPYTFGQGTKLEIKR
notes: IgG1; also called ST2 Antibody 72
For B10, the affinity, expressed as Kd, was 335 nM; the koff worked out at 0.082 s⁻¹; the kon turned out to be 240000 M⁻¹ s⁻¹.

B11: Human ST2 IgG1 Antibody 74 (antibody, V domains shown)
VH: EVQLLESGGGLVQPGGSLRLSCAASGFTFSSYWMSWVRQAPGKGLEWVSSISSSSSYIYYADSVKGRFTISRDNSKNTLYLQMNSLRAEDTAVYYCARDQGWFDPWGQGTLVTVSS
VL: DIQMTQSPSSLSASVGDRVTITCRASRAIGNNLSWYQQKPGKAPKLLIYTASSLQSGVPSRFSGSGSGTDFTLTISSLQPEDFATYYCQQSYSTPYTFGQGTKVEIKR
notes: IgG1; also called ST2 Antibody 74
B11 had a Kd of 60 nM, a koff of 0.012 s⁻¹ and a kon of 200000 M⁻¹ s⁻¹.

B12: Human ST2 IgG1 Antibody 73 (antibody, V domains shown)
VH: EVQLLESGGGLVQPGGSLRLSCAASGFAFSSHWMHWVRQAPGKGLEWVAVISYDGSNKYYADSVKGRFTISRDNSKNTLYLQMNSLRAEDTAVYYCARDRGMIDYWGQGTLVTVSS
VL: DIQMTQSPSSLSASVGDRVTITCRASQGIGSWLAWYQQKPGKAPKLLIHAATKLQTGVPSRFSGSGSGTDFTLTISSLQPEDFATYYCQQSYSTPFTFGPGTKVDIKR
notes: IgG1; also called ST2 Antibody 73
Molecule B12 returned a Kd of 603 nM, a koff of 0.085 s⁻¹ and a kon of 140000 M⁻¹ s⁻¹.

B13: Human ST2 IgG1 Antibody 87 (antibody, V domains shown)
VH: QVQLVQSGAEVKKPGASVKVSCKASGYTFAGQYMHWVRQAPGQGLEWMGNINPSGGSTSYAQRFQGRVTMTRDTSTSTVYMELSSLRSEDTAVYYCARGDYSETYYYYMDVWGKGTTVTVSS
VL: DIQMTQSPSSLSASVGDRVTITCRASQHINSNLNWYQQKPGKAPKLLIYGASSLQSGVPSRFSGSGSGTDFTLTISSLQPEDFATYYCQQSYTTPFTFGPGTKVDIKR
notes: IgG1; also called ST2 Antibody 87
Regarding B13, the Kd worked out at 642 nM, the koff amounted to 0.018 s⁻¹ and the kon worked out at 27000 M⁻¹ s⁻¹.

B14: Human ST2 IgG1 Antibody 81 (antibody, V domains shown)
VH: EVQLLESGGGLVKPGGSLRLSCAASGFTFSSYWMSWVRQAPGKGLEWVSSISSSGNYMYYAVSVKGRFTISRDDSKNTLYLQMNSLKTEDTAVYYCATETYSYSSMDVWGQGTTVTVSS
VL: DIQMTQSPSSLSASVGDRVTITCRASQSISSYLNWYQQKPGKAPKLLIYDASNLETGVPSRFSGSGSGTDFTLTISSLQPEDFATYYCQQSYGTPLTFGGGTKVDIKR
notes: IgG1; also called ST2 Antibody 81
Turning to B14, the Kd was determined as 126 nM, the koff stood at 0.026 s⁻¹ and the kon is 200000 M⁻¹ s⁻¹.

B15: Human ST2 IgG1 Antibody 82 (antibody, V domains shown)
VH: QVQLVQSGAEVKKPGASVKVSCKASGYTFTENEMHWVRQAPGQGLEWMGWISAYNGDTNYAQKFQGRVTMTRDTSTSTVYMELSSLRSEDTAVYYCAKEVRLDDDEMWYFDLWGRGTLVTVSS
VL: DIQMTQSPSSLSASVGDRVTITCRASQDINNFLVWYQQKPGKAPKLLIYDASNLETGVPSRFSGSGSGTDFTLTISSLQPEDFATYYCQQAYSFPLTFGGGTKVEIKR
notes: IgG1; also called ST2 Antibody 82
With B15, the Kd came to 204 nM, the koff turned out to be 0.003 s⁻¹ and the kon was 15000 M⁻¹ s⁻¹.

B16: Human ST2 IgG1 Antibody 78 (antibody, V domains shown)
VH: EVQLLESGGGLVQPGGSLRLSCAASDFNFKNAWMSWVRQAPGKGLEWVSAISGNGAGTYYADSVKGRFTISRDNSKNTLYLQMNSLRAEDTAVYYCARVGETGAFDIWGQGTTVTVSS
VL: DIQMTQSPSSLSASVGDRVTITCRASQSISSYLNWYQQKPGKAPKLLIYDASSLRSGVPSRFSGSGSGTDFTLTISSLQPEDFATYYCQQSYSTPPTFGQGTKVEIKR
notes: IgG1; also called ST2 Antibody 78
B16 had a Kd of 154 nM, a koff of 0.082 s⁻¹ and a kon of 530000 M⁻¹ s⁻¹.

B17: Human ST2 IgG1 Antibody 80 (antibody, V domains shown)
VH: QVQLVQSGAEVKKPGSSVKVSCKASGGTFSSYAISWVRQAPGQGLEWMGGIIPIFGTANYAQKFQGRVTITADESTSTAYMELSSLRSEDTAVYYCARVMVAGTGYYFDYWGQGTLVTVSS
VL: DIVMTQSPLSLPVTPGEPASISCRSSQSLLHSNGYNYLDWYLQKPGQSPQLLIYGASSLQSGVPDRFSGSGSGTDFTLKISRVEAEDVGVYYCMQGLHTPPTFGQGTKLEIKR
notes: IgG1; also called ST2 Antibody 80
With B17, the Kd was 842 nM, the koff worked out at 0.056 s⁻¹ and the kon amounted to 67000 M⁻¹ s⁻¹.

B18: Human ST2 IgG1 Antibody 90 (antibody, V domains shown)
VH: QVQLVQSGAEVKKPGSSVKVSCKASGYTFSDFSIHWVRQAPGQGLEWMGGMLPISHIAHYARKFQGRVTITADESTSTAYMELSSLRSEDTAVYYCARGGSSGWFEVWGQGTTVTVSS
VL: DIVMTQSPLSLPVTPGEPASISCRSSQSLLHSNGYNYLDWYLQKPGQSPQLLIYAASTLQSGVPDRFSGSGSGTDFTLKISRVEAEDVGVYYCMQGAHWPPTFGQGTKLEIKR
notes: IgG1; also called ST2 Antibody 90
For the molecule B18, the Kd amounted to 970 nM, the koff was found to be 0.17 s⁻¹ and the kon came out at 170000 M⁻¹ s⁻¹.

B19: Human ST2 IgG1 Antibody 84 (antibody, V domains shown)
VH: QVQLVQSGAEVKKPGSSVKVSCKASGGTFSSYALSWVRQAPGQGLEWMGGIIPIFGTANYAQKFQGRVTITADESTSTAYMELSSLRSEDTAVYYCARAAAAGTAWYFDLWGRGTLVTVSS
VL: not shown
notes: IgG1; also called ST2 Antibody 84
The molecule B19 returned a Kd of 125 nM, a koff of 0.0019 s⁻¹ and a kon of 15000 M⁻¹ s⁻¹.
